Results: patent US6673571B2, “Polypeptides having aminopeptidase activity and nucleic acids encoding same” (Novozymes Biotech, Inc., priority 1997, dated 2004)

Key:
soy protein = assay: Degree of hydrolysis (DH) in soy protein hydrolysis, OPA method; format: biochemical, soy bean; conditions: for DH: 50° C., 18 hours
Description: The degree of hydrolysis (DH) of the soy protein was determined as follows. The DH, defined as described in by Adler-Nissen (1986, Enzymic Hydrolysis of Food Proteins, Elsevier Applied Science Publishers), was determined by reaction of the supernatant with OPA (ortho-phthaldialdehyde, Sigma Chemical Co., St. Louis, Mo.) essentially as described by Church et al., 1983, Journal of Dairy Science 66: 1219-1227 with correction factors as determined by Adler-Nissen, 1979, Agricultural and Food Chemistry 27: 1256-1262.
The aminopeptidase I was added in increasing dosage to either a low-background (1.5% of the substrate protein) or a high background (6% of the substrate protein) of FLAVOURZYME 1000L™ and a dosage of ALCALASE 2.4L® of 1.5% of the substrate protein. The experiments were carried out as described below:
Hydrolysis was carried out on a 10 ml scale at 50° C. for 18 hours. The initial pH was 7 with no pH readjustment during hydrolysis. Inactivation of the enzyme was carried out at 85° C. for 3 minutes in a water bath. The substrate concentration was 2% protein from soy bean meal. The substrate was heat treated in a water bath at 85° C. for 3 minutes. The enzymes used with FLAVOURZYME 1000L™ and ALCALASE 2.4L® described above were crude Sphingomonas capsulata aminopeptidase I powder (see Example 1) and the purified Sphingomonas capsulata aminopeptidase I described in Example 4.

[1] = Substrate specificity: initial rates of hydrolysis of para-nitroanilides; format: biochemical; conditions: pH 7.5, 25° C.
Description: Stock solutions of 100 mg of each para-nitroanilide per ml of dimethylsulfoxide were diluted with 50 mM sodium phosphate pH 7.5 buffer to concentrations of 2 mg per ml. Where the substrates were incompletely soluble, their suspensions were used (shown with an asterisk in Table 2 below). The reaction of the Sphingomonas capsulata aminopeptidase I with each para-nitroanilide was initiated when a 10 μl aliquot of the enzyme solution in 50 mM sodium phosphate pH 7.0 buffer was added to 190 μl of a substrate solution in a 96 well microtiter plate. Analysis of initial rates of hydrolysis of the para-nitroanilides was monitored at 405 nm and 25° C. in a THERMOmax Microplate Reader (Molecular Devices Corp., Sunnyvale, Calif., USA).

[2] = Specific activity in glycine aminopeptidase units (GAPU); format: biochemical; conditions: Gly-pNA, 50 mM Tris-HCl pH 7.5, 37° C.
Description: The enzymes used with FLAVOURZYME™ and ALCALASE® were crude Sphingomonas capsulata aminopeptidase I powder and purified Sphingomonas capsulata aminopeptidase I as in Example 7. Glycine aminopeptidase unit (GAPU) of both crude and purified enzyme was measured in 50 mM Tris-HCl pH 7.5 buffer at 37° C. using Gly-pNA as a substrate. Aminopeptidase I was assayed at 37° C. in 50 mM Tris-HCl (pH 7.5). Gly-pNA (Bachem Feinchemikalien AG, Bubendorf, Switzerland) was dissolved in 40% dioxane at a concentration of 2.5 mg/ml and 1.5 volume of 50 mM Tris-HCl (pH 7.5) was added to a substrate concentration of 1 mg/ml. The enzyme sample was diluted in 500 μl of the same buffer and 100 μl of the substrate solution was added and incubated at 37° C. for 5 minutes. The reaction was terminated by the addition of 300 μl of 1 M sodium acetate pH 4.0 buffer. For the blank reaction, the stop solution was added to the enzyme solution and incubated for 5 minutes at 37° C., and then the substrate solution was added. The absorbance at 410 nm was measured for both the sample and blank reactions. The enzyme activity was calculated using the molecular extinction coefficient at 410 nm for pNA as 9480 M^−1 cm^−1. One unit of GAPU was defined as the quantity of enzyme that hydrolyses 1 micromole of Gly-pNA at 37° C. per minute under the conditions described above. […]

[3] = Specific activity in alanyl-aminopeptidase units (AAU); format: biochemical; conditions: Ala-pNa, pH 7.5, 22° C.
Description: The aminopeptidase I dosages used were based on alanyl-aminopeptidase units (AAU) determined by the hydrolysis of Ala-pNa at pH 7.5. One AAU unit of the aminopeptidase I is defined as the quantity of an enzyme which hydrolyses 1.0 micromole of Ala-pNa per minute in a 9.1 mM solution of Ala-pNa at pH 7.5, 22° C., and ionic strength=0.05.
The specific activity of the purified aminopeptidase I was approximately 12 AAU/mg enzyme. Therefore, a dosage of 0.24 AAU per 200 mg soy protein, for example, corresponded to 0.1 g enzyme per kg soy protein.

B1: Sphingomonas capsulata aminopeptidase I: purified aminopeptidase of 67 kDa from Sphingomonas capsulata IFO 12533; deduced amino acid sequence SEQ ID NO:2 (protein)
chain: MRKTPQGIGLLSALSTSTLALATLILAQPALAQVQPASNSRPMAVPIAHGVPDAQDVPYPGTIGLQIDATDLATGAFRVVETVPVAADAKELILQLPAWLPGEHGNRGPVAELAGITFEAKGQKLAWTRDPVEVNAFHIPLPAGTSEVVARFIHTSPLRDSEGRITVTREMLNVQWEKMSLYPAGHYVRQIKVRPTVSFPQGWTVFTALDGKTQSGAGNTVTWAETDYETLVDSPIFAGLYAARHDLGHNVYFDLVADKPELLAIKPENLAAYRNLADEAVGAFGARHFDHYDFLLALTDRMGSIGLEHHRSSENQQEPKSLTDWAAYDWDRNVIAHEFSHSWDGKYRRSAKLWTPDYRQPMQDNLLWVYEGQTQFWGLVLAARSGVQSKDVVLGSLANYAGTFTQTAGRDWRSVEDTTMDPIFAARKPKPYSSLTRNEDYYTEGALVWLEADQIIRDGTGGKKGLDDFAKAFFGVRDGDWGVLTYEFDDVVKTLNGVYPYDWATFLKTRLQTPGQPVPLGGIERGGYKLEFKDEPNPYDKARMADAKVLSLFNSLGVTLDKDGKVTASRWDGPAFKAGLVSGMQVMAVNGDAYDADKLKGAITNAKTGNPGAGRPIELLVKRDDRFVTLPITYADGLRWPWLVRTAPGTAPTGLDKLLAPHASKLPVGKAAK
% Relative increase in DH (soy protein; 1.5% FLAVOURZYME +67 kDa AP): 34.8% | % Relative increase in DH (soy protein; 1.5% FLAVOURZYME +67 kDa AP versus 6.0% FLAVOURZYME): −2.2% | % Relative increase in DH (soy protein; 6.0% FLAVOURZYME +67 kDa AP): 14.2% | DH (soy protein; added to high dosage (6%) FLAVOURZYME + 1.5% ALCALASE, from DH 61%): 71% | DH (soy protein; added to low dosage (1.5%) FLAVOURZYME + 1.5% ALCALASE, from DH 44%): 61-62% | share of the DH increasing effect of the crude enzyme (soy protein; high dosage of FLAVOURZYME, (71−61)/(77−61)×100%): 63% | share of the DH increasing effect of the crude enzyme (soy protein; low dosage of FLAVOURZYME, (62−44)/(72−44)×100%): 64% | effect of adding aminopeptidase I as % of the effect of the crude enzyme (soy protein; relative to 1.5% + 0.5% extra FLAVOURZYME, (62−48)/(72−48)×100%): 58% | effect of aminopeptidase I as % of the effect of the crude enzyme (soy protein; relative to 6% + 1% extra FLAVOURZYME, (71−63)/(77−63)×100%): 57% | Relative activity (%) ([1]; Ala p-nitroanilide): 100% | Relative activity (%) ([1]; Asp p-nitroanilide): 4.5% | Relative activity (%) ([1]; Glu* p-nitroanilide (suspension)): 6% | Relative activity (%) ([1]; Gly* p-nitroanilide (suspension)): 20% | Relative activity (%) ([1]; Ile p-nitroanilide): 0.5% | Relative activity (%) ([1]; Leu p-nitroanilide): 18.5% | Relative activity (%) ([1]; Lys p-nitroanilide): 6% | Relative activity (%) ([1]; Met p-nitroanilide): 24% | Relative activity (%) ([1]; Phe* p-nitroanilide (suspension)): 0% | Relative activity (%) ([1]; Pro p-nitroanilide): 0% | Relative activity (%) ([1]; Val p-nitroanilide): 0.5% | specific activity [2]: 6.45 GAPU/mg | specific activity [3]: approximately 12 AAU/mg enzyme
